The results in this text go back to publication PMC6126765 (Proceedings of the National Academy of Sciences of the …, 2018).

This data set deals with the molecule itself. The data set is described as follows: cryo-EM structure.

B1: MBP-tagged truncated mouse TRPM7 (amino acids 1 to 1280) (domain or fragment)
chain: MSQKSWIESTLTKRECVYIIPSSKDPHRCLPGCQICQQLVRCFCGRLVKQHACFTASLAMKYSDVKLGEHFNQAIEEWSVEKHTEQSPTDAYGVINFQGGSHSYRAKYVRLSYDTKPEIILQLLLKEWQMELPKLVISVHGGMQKFELHPRIKQLLGKGLIKAAVTTGAWILTGGVNTGVAKHVGDALKEHASRSSRKICTIGIAPWGVIENRNDLVGRDVVAPYQTLLNPLSKLNVLNNLHSHFILVDDGTVGKYGAEVRLRRELEKTINQQRIHARIGQGVPVVALIFEGGPNVILTVLEYLQESPPVPVVVCEGTGRAADLLAYIHKQTEEGGNLPDAAEPDIISTIKKTFNFGQSEAVHLFQTMMECMKKKELITVFHIGSEDHQDIDVAILTALLKGTNASAFDQLILTLAWDRVDIAKNHVFVYGQQWLVGSLEQAMLDALVMDRVSFVKLLIENGVSMHKFLTIPRLEELYNTKQGPTNPMLFHLIRDVKQGNLPPGYKITLIDIGLVIEYLMGGTYRCTYTRKRFRLIYNSLGGNNRRSGRNTSSSTPQLRKSHETFGNRADKKEKMRHNHFIKTAQPYRPKMDASMEEGKKKRTKDEIVDIDDPETKRFPYPLNELLIWACLMKRQVMARFLWQHGEESMAKALVACKIYRSMAYEAKQSDLVDDTSEELKQYSNDFGQLAVELLEQSFRQDETMAMKLLTYELKNWSNSTCLKLAVSSRLRPFVAHTCTQMLLSDMWMGRLNMRKNSWYKVILSILVPPAILMLEYKTKAEMSHIPQSQDAHQMTMEDSENNFHNITEEIPMEVFKEVKILDSSDGKNEMEIHIKSKKLPITRKFYAFYHAPIVKFWFNTLAYLGFLMLYTFVVLVKMEQLPSVQEWIVIAYIFTYAIEKVREVFMSEAGKISQKIKVWFSDYFNVSDTIAIISFFVGFGLRFGAKWNYINAYDNHVFVAGRLIYCLNIIFWYVRLLDFLAVNQQAGPYVMMIGKMVANMFYIVVIMALVLLSFGVPRKAILYPHEEPSWSLAKDIVFHPYWMIFGEVYAYEIDVCANDSTLPTICGPGTWLTPFLQAVYLFVQYIIMVNLLIAFFNNVYLQVKAISNIVWKYQRYHFIMAYHEKPVLPPPLIILSHIVSLFCCVCKRRKKDKTSDGPKLFLTEEDQKKLHDFEEQCVEMYFDEKDDKFNSGSEERIRVTFERVEQMSIQIKEVGDRVNYIKRSLQSLDSQIGHLQDLSALTVDTLKTLTAQKASEASKVHNEITRELSISKHLAQNLID
One may read the stoichiometry N as the number of molecules, sites or subunits per partner or assembly. For B1, the “stoichiometry N” value was found to be 4.
